Here are results for 33 substances from the Human Domainome abundance scans (Beltran et al. 2025).

± gives the uncertainty stated by the source.

This data set in a line: abundance fitness (aPCA) (normalised: wild type 0, dead -1); higher = more abundant; growth selection in yeast, the domain comes from the species named. The following applies: Homo sapiens.
Regarding “Lipoamide acyltransferase component of branched-chain alpha-keto acid dehydrogenase complex, mitochondrial K196N, P11182”, the abundance fitness is -0.053 ± 0.076.

“Lipoamide acyltransferase component of branched-chain alpha-keto acid dehydrogenase complex, mitochondrial K196P, P11182” registered an abundance fitness of -0.051 ± 0.047.

For the substance “Lipoamide acyltransferase component of branched-chain alpha-keto acid dehydrogenase complex, mitochondrial K196Q, P11182”, the abundance fitness is -0.077 ± 0.047.

“Lipoamide acyltransferase component of branched-chain alpha-keto acid dehydrogenase complex, mitochondrial K196R, P11182” yielded an abundance fitness of -0.026 ± 0.039.

In turn, “Lipoamide acyltransferase component of branched-chain alpha-keto acid dehydrogenase complex, mitochondrial K196S, P11182” yielded an abundance fitness of -0.121 ± 0.044.

For “Lipoamide acyltransferase component of branched-chain alpha-keto acid dehydrogenase complex, mitochondrial K196T, P11182”, the abundance fitness was -0.079 ± 0.044.

“Lipoamide acyltransferase component of branched-chain alpha-keto acid dehydrogenase complex, mitochondrial K196V, P11182” showed an abundance fitness of -0.124 ± 0.037.

In turn, “Lipoamide acyltransferase component of branched-chain alpha-keto acid dehydrogenase complex, mitochondrial K196W, P11182” had an abundance fitness of -0.52 ± 0.053.

“Lipoamide acyltransferase component of branched-chain alpha-keto acid dehydrogenase complex, mitochondrial K196Y, P11182” returned an abundance fitness of -0.222 ± 0.058.

Turning to “Lipoamide acyltransferase component of branched-chain alpha-keto acid dehydrogenase complex, mitochondrial K202A, P11182”, the abundance fitness was 0.039 ± 0.042.

As to “Lipoamide acyltransferase component of branched-chain alpha-keto acid dehydrogenase complex, mitochondrial K202C, P11182”, the abundance fitness is -0.282 ± 0.086.

With “Lipoamide acyltransferase component of branched-chain alpha-keto acid dehydrogenase complex, mitochondrial K202D, P11182”, the abundance fitness is -0.215 ± 0.058.

On to “Lipoamide acyltransferase component of branched-chain alpha-keto acid dehydrogenase complex, mitochondrial K202E, P11182”, for which the abundance fitness is 0.069 ± 0.052.

Take “Lipoamide acyltransferase component of branched-chain alpha-keto acid dehydrogenase complex, mitochondrial K202G, P11182”: the abundance fitness is -0.135 ± 0.038.

Regarding “Lipoamide acyltransferase component of branched-chain alpha-keto acid dehydrogenase complex, mitochondrial K202I, P11182”, the abundance fitness was -0.017 ± 0.17.

On to “Lipoamide acyltransferase component of branched-chain alpha-keto acid dehydrogenase complex, mitochondrial K202L, P11182”, for which the abundance fitness is -0.118 ± 0.047.

As for “Lipoamide acyltransferase component of branched-chain alpha-keto acid dehydrogenase complex, mitochondrial K202M, P11182”, the abundance fitness is -0.089 ± 0.053.

For “Lipoamide acyltransferase component of branched-chain alpha-keto acid dehydrogenase complex, mitochondrial K202P, P11182”, the abundance fitness came out at 0.011 ± 0.052.

For the substance “Lipoamide acyltransferase component of branched-chain alpha-keto acid dehydrogenase complex, mitochondrial K202Q, P11182”, the abundance fitness was -0.088 ± 0.049.

In the case of “Lipoamide acyltransferase component of branched-chain alpha-keto acid dehydrogenase complex, mitochondrial K202R, P11182”, the abundance fitness was -0.001 ± 0.037.

“Lipoamide acyltransferase component of branched-chain alpha-keto acid dehydrogenase complex, mitochondrial K202S, P11182” showed an abundance fitness of -0.124 ± 0.049.

On to “Lipoamide acyltransferase component of branched-chain alpha-keto acid dehydrogenase complex, mitochondrial K202T, P11182”, for which the abundance fitness is -0.211 ± 0.062.

“Lipoamide acyltransferase component of branched-chain alpha-keto acid dehydrogenase complex, mitochondrial K202V, P11182” showed an abundance fitness of -0.105 ± 0.044.

The substance “Lipoamide acyltransferase component of branched-chain alpha-keto acid dehydrogenase complex, mitochondrial K202W, P11182” registered an abundance fitness of -0.276 ± 0.056.

Take “Lipoamide acyltransferase component of branched-chain alpha-keto acid dehydrogenase complex, mitochondrial K211A, P11182”: the abundance fitness came to 0.066 ± 0.043.

“Lipoamide acyltransferase component of branched-chain alpha-keto acid dehydrogenase complex, mitochondrial K211C, P11182” came in with an abundance fitness of -0.056 ± 0.053.

Take “Lipoamide acyltransferase component of branched-chain alpha-keto acid dehydrogenase complex, mitochondrial K211D, P11182”: the abundance fitness was -0.076 ± 0.053.

As to “Lipoamide acyltransferase component of branched-chain alpha-keto acid dehydrogenase complex, mitochondrial K211E, P11182”, the abundance fitness is -0.045 ± 0.039.

Substance “Lipoamide acyltransferase component of branched-chain alpha-keto acid dehydrogenase complex, mitochondrial K211F, P11182” came in with an abundance fitness of -0.232 ± 0.065.

“Lipoamide acyltransferase component of branched-chain alpha-keto acid dehydrogenase complex, mitochondrial K211G, P11182” displayed an abundance fitness of 0.007 ± 0.037.

Substance “Lipoamide acyltransferase component of branched-chain alpha-keto acid dehydrogenase complex, mitochondrial K211H, P11182” registered an abundance fitness of -0.041 ± 0.052.

Substance “Lipoamide acyltransferase component of branched-chain alpha-keto acid dehydrogenase complex, mitochondrial K211I, P11182” came in with an abundance fitness of -0.122 ± 0.061.

In turn, “Lipoamide acyltransferase component of branched-chain alpha-keto acid dehydrogenase complex, mitochondrial K211L, P11182” gave an abundance fitness of -0.115 ± 0.043.
